The values below come from publication PMC8956951 (The Journal of Biological Chemistry, 2022).

The target of experiment [1] is T1, Fu-bc subunit protein (Dengue virus (DENV-2-like E domain II), …).
T1 chain: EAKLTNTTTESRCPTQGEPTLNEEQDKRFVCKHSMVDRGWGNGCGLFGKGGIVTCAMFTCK
Description: SPR. Background: In SPR one partner is held on a chip, and binding of the other changes the refractive index at the surface.

The target in experiment [2] is T1, Fu-bc subunit protein. Nature of the experiment: BLI.
The target in experiment [3] is T2, Fu-bc fused to the GAL4 activation domain (pGADT7) (Dengue virus (DENV-2-like E domain II), …).
T2 chain: T1 chain
Nature of the experiment: two-hybrid.

Where a chain is given by its changes, count along the chain named. Names may count otherwise. “And” between values parts separate entries of the source, which are not always exact repeats. Identical values can stand only once.

B1: scFv-Mutant9 (S227W) (scFv, V domains shown)
VH: EVKLVESGGGLVLPGGSLRLSCATSGFTFTDYYMTWVRQPPGKALEWLGFIGNKANDYTTEYSASVKGRFTISRDDSQSILYLQMSTLRAEDRATYYCATVYGNYPYFDVWGAGTTVAVSS
VL: QIVLTQSPAIMSASPGEKVTMTCSASSSVSYMHWYQQKSGTSPKIWIYESSKLASGVPVRFSGSGSGTSYSLTISSMEAEDVATYYCQQWSWHPHPLTFGAGTKLELK
Consider B1, for which the binding result in the experiment with Fu-bc subunit protein [1] was “binds”.

B2: scFv-mutant16 (T30W, Y33Q, S227W) (scFv, V domains shown)
VH: B1 VH with T30W, Y33Q
VL: B1 VL
As for B2, the dissociation constant (Kd) (commonly the concentration at which binding is half-saturated) with Fu-bc subunit protein [2] came out at 47 ± 19 nM; with Fu-bc subunit protein [1] it was 52 ± 17 nM.

B3: scFv-mutant18 (Y33Q, Y105W, H230W) (scFv, V domains shown)
VH: B1 VH with Y33Q, Y105W
VL: B1 VL with W92S, H95W
On to B3, for which the Kd in the experiment with Fu-bc subunit protein [2] amounted to 310 ± 35 nM. The “fold change in affinity against the WT” value with Fu-bc subunit protein [1] is roughly 7 fold.

B4: scFv-Mutant8 (S227L) (scFv, V domains shown)
VH: B1 VH
VL: B1 VL with W92L
As for B4, the binding result with Fu-bc subunit protein [1] is given as “binds”.

B5: scFv double mutant12 (T30W, S227W) (scFv, V domains shown)
VH: B1 VH with T30W
VL: B1 VL
For B5, the binding result in the experiment with Fu-bc subunit protein [1] is “binds”.

B6: scFv double mutant T30W, S227L (scFv, V domains shown)
VH: B1 VH with T30W
VL: B1 VL with W92L
Regarding B6, the binding result in the experiment with Fu-bc subunit protein [1] is listed as “binds”.

B7: scFv-mutant15 (D31L, Y105W, S227W) (scFv, V domains shown)
VH: B1 VH with D31L, Y105W
VL: B1 VL
On to B7, for which the dissociation constant (Kd) with Fu-bc subunit protein [2] is 21 ± 11 nM; with Fu-bc subunit protein [1], 24 nM and 20 to 52 nM.

B8: scFv single mutant D31F (scFv, V domains shown)
VH: B1 VH with D31F
VL: B1 VL with W92S
Consider B8, for which the binding result with Fu-bc subunit protein [1] is listed as “binds”.

B9: scFv-mutant17 (Y33Q, G103T, S227L) (scFv, V domains shown)
VH: B1 VH with Y33Q, G103T
VL: B1 VL with W92L
Take B9: the equilibrium dissociation constant (Kd) with Fu-bc subunit protein [2] came out at 31 ± 14 nM; with Fu-bc subunit protein [1] it was 27 ± 11 nM.

B10: scFv-mutant17 fused to the GAL4 DNA-binding domain (pGBKT7) (scFv, V domains shown)
VH: B1 VH with Y33Q, G103T
VL: B1 VL with W92L
On to B10, for which the binding result in experiment [3] is “binds”.

B11: scFv-Mutant6 (G103T) (scFv, V domains shown)
VH: B1 VH with G103T
VL: B1 VL with W92S
Take B11: the binding result in the experiment with Fu-bc subunit protein [1] is given as “binds”.

B12: scFv-mutant15 fused to the GAL4 DNA-binding domain (pGBKT7) (scFv, V domains shown)
VH: B1 VH with D31L, Y105W
VL: B1 VL
Consider B12, for which the binding result in experiment [3] is “binds”.

B13: scFv-Mutant5 (Y33Q) (scFv, V domains shown)
VH: B1 VH with Y33Q
VL: B1 VL with W92S
In the experiment with Fu-bc subunit protein [1], B13 returned a Kd of 302 ± 15 nM.

B14: scFv single mutant D31L (scFv, V domains shown)
VH: B1 VH with D31L
VL: B1 VL with W92S
B14: the binding result with Fu-bc subunit protein [1] is given as “binds”.

B15: scFv-mutant18 fused to the GAL4 DNA-binding domain (pGBKT7) (scFv, V domains shown)
VH: B1 VH with Y33Q, Y105W
VL: B1 VL with W92S, H95W
Regarding B15, the binding result in experiment [3] is “binds”.

B16: scFv-Mutant1 (T30W) (scFv, V domains shown)
VH: B1 VH with T30W
VL: B1 VL with W92S
With B16, in the experiment with Fu-bc subunit protein [1], the binding result is given as “binds”.

B17: scFv-mutant16 fused to the GAL4 DNA-binding domain (pGBKT7) (scFv, V domains shown)
VH: B1 VH with T30W, Y33Q
VL: B1 VL
Consider B17, for which the binding result in experiment [3] was “binds”.

B18: scFv double mutant13 (Y33Q, G103T) (scFv, V domains shown)
VH: B1 VH with Y33Q, G103T
VL: B1 VL with W92S
For B18, in the experiment with Fu-bc subunit protein [1], the “fold change in affinity against the WT” value came to 45 fold.

B19: scFv-Mutant7 (Y105W) (scFv, V domains shown)
VH: B1 VH with Y105W
VL: B1 VL with W92S
B19: in the experiment with Fu-bc subunit protein [1], the binding result is recorded as “binds”.
